According to the supplement of paper PMC10567573:

B1: MLL5 (parent)
chain: DCMGIDRQHIPDTYLCERCQPRNL
B2: ZBTB22 (parent)
chain: AVLAASSPYFHDQVLLKGMTSISL

Variants of: B1
Test: protein stability index of a GFP-peptide fusion (GPS, HEK-293T) (PSI 1-6); higher = more stable
Conditions: c terminus: a fixed tail appended
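Note: lentivirally expressed fusions sorted by FACS into six bins by GFP to DsRed ratio, PSI derived from sequencing read proportions per bin multiplied by bin number.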

Q: For DCMGIDRQHIPDTYLCEDCQPRNL [R18D], which protein stability index is on record?
A: 3.81

Q: Which protein stability index does the source give for DCMGIDRQHIPDTYLCMRCQPRNL [E17M] here?
A: 2.28

Q: Which protein stability index does the source give for DCMGIDRQHIPDTYLCVRCQPRNL [E17V] here?
A: 1.71

Q: With DCMGIDRQHIPDTYLCSRCQPRNL [E17S] as the variant, how does the protein stability index read?
A: 2.64

Q: With DCMGIDRQHIPDTYLCNRCQPRNL [E17N] as the variant, how does the protein stability index read?
A: 3.35

Q: Which protein stability index does the source give for DCMGIDRQHIPDTYLCTRCQPRNL [E17T] here?
A: 3.07

Q: With DCMGIDRQHIPDTYLCCRCQPRNL [E17C] as the variant, how does the protein stability index read?
A: 2.32

Q: With DCMGIDRQHIPDTYLCFRCQPRNL [E17F] as the variant, how does the protein stability index read?
A: 2.25

Q: For DCMGIDRQHIPDTYLCLRCQPRNL [E17L], which protein stability index is on record?
A: 2.96

Q: Which protein stability index does the source give for DCMGIDRQHIPDTYLCIRCQPRNL [E17I] here?
A: 1.94

Q: With DCMGIDRQHIPDTYLCYRCQPRNL [E17Y] as the variant, how does the protein stability index read?
A: 2.5

Q: Which protein stability index does the source give for DCMGIDRQHIPDTYLCDRCQPRNL [E17D] here?
A: 3.21

Q: With DCMGIDRQHIPDTYLCARCQPRNL [E17A] as the variant, how does the protein stability index read?
A: 2.89

Q: Which protein stability index does the source give for DCMGIDRQHIPDTYLCPRCQPRNL [E17P] here?
A: 2.96

Q: For DCMGIDRQHIPDTYLCKRCQPRNL [E17K], which protein stability index is on record?
A: 2.6

Q: With DCMGIDRQHIPDTYLCHRCQPRNL [E17H] as the variant, how does the protein stability index read?
A: 2.68

Q: With DCMGIDRQHIPDTYLCWRCQPRNL [E17W] as the variant, how does the protein stability index read?
A: 2.02

Q: Which protein stability index does the source give for DCMGIDRQHIPDTYLCGRCQPRNL [E17G] here?
A: 2.39

Q: Which protein stability index does the source give for DCMGIDRQHIPDTYLCRRCQPRNL [E17R] here?
A: 2.47

Q: Which protein stability index does the source give for DCMGIDRQHIPDTYLCQRCQPRNL [E17Q] here?
A: 3.04

Q: Which protein stability index does the source give for DCMGIDRQHIPDTYLCERCPPRNL [Q20P] here?
A: 3.24

Q: With DCMGIDRQHIPDTYLCERCLPRNL [Q20L] as the variant, how does the protein stability index read?
A: 1.99

Q: For DCMGIDRQHIPDTYLCERCHPRNL [Q20H], which protein stability index is on record?
A: 2.8

Q: Which protein stability index does the source give for DCMGIDRQHIPDTYLCERCDPRNL [Q20D] here?
A: 4.22

Q: For DCMGIDRQHIPDTYLCERCAPRNL [Q20A], which protein stability index is on record?
A: 2.81

Q: With DCMGIDRQHIPDTYLCERCWPRNL [Q20W] as the variant, how does the protein stability index read?
A: 2.27

Q: Which protein stability index does the source give for DCMGIDRQHIPDTYLCERCNPRNL [Q20N] here?
A: 3.33

Q: With DCMGIDRQHIPDTYLCERCMPRNL [Q20M] as the variant, how does the protein stability index read?
A: 3.26

Q: With DCMGIDRQHIPDTYLCERCVPRNL [Q20V] as the variant, how does the protein stability index read?
A: 2.79

Q: For DCMGIDRQHIPDTYLCERCFPRNL [Q20F], which protein stability index is on record?
A: 2.37

Q: Which protein stability index does the source give for DCMGIDRQHIPDTYLCERCIPRNL [Q20I] here?
A: 2.55

Q: Which protein stability index does the source give for DCMGIDRQHIPDTYLCERCYPRNL [Q20Y] here?
A: 2.94

Q: For DCMGIDRQHIPDTYLCERCCPRNL [Q20C], which protein stability index is on record?
A: 2.69

Q: With DCMGIDRQHIPDTYLCERCTPRNL [Q20T] as the variant, how does the protein stability index read?
A: 3.53

Q: Which protein stability index does the source give for DCMGIDRQHIPDTYLCERCSPRNL [Q20S] here?
A: 3.03

Q: With DCMGIDRQHIPDTYLCERCEPRNL [Q20E] as the variant, how does the protein stability index read?
A: 3.21

Q: With DCMGIDRQHIPDTYLCERCKPRNL [Q20K] as the variant, how does the protein stability index read?
A: 2.68

Q: Which protein stability index does the source give for DCMGIDRQHIPDTYLCERCGPRNL [Q20G] here?
A: 2.79

Q: Which protein stability index does the source give for DCMGIDRQHIPDTYLCERCQTRNL [P21T] here?
A: 2.95

Q: For DCMGIDRQHIPDTYLCERCQSRNL [P21S], which protein stability index is on record?
A: 2.93

Q: With DCMGIDRQHIPDTYLCERCQHRNL [P21H] as the variant, how does the protein stability index read?
A: 2.76

Q: With DCMGIDRQHIPDTYLCERCQIRNL [P21I] as the variant, how does the protein stability index read?
A: 2.5

Q: Which protein stability index does the source give for DCMGIDRQHIPDTYLCERCQWRNL [P21W] here?
A: 1.7

Q: For DCMGIDRQHIPDTYLCERCQQRNL [P21Q], which protein stability index is on record?
A: 3.93

Q: For DCMGIDRQHIPDTYLCERCQYRNL [P21Y], which protein stability index is on record?
A: 2.88

Q: Which protein stability index does the source give for DCMGIDRQHIPDTYLCERCQLRNL [P21L] here?
A: 3.61

Q: For DCMGIDRQHIPDTYLCERCQMRNL [P21M], which protein stability index is on record?
A: 3.62

Q: For DCMGIDRQHIPDTYLCERCQVRNL [P21V], which protein stability index is on record?
A: 2.48

Q: For DCMGIDRQHIPDTYLCERCQARNL [P21A], which protein stability index is on record?
A: 3.58

Q: For DCMGIDRQHIPDTYLCERCQERNL [P21E], which protein stability index is on record?
A: 4

Q: With DCMGIDRQHIPDTYLCERCQDRNL [P21D] as the variant, how does the protein stability index read?
A: 4.21

Q: For DCMGIDRQHIPDTYLCERCQKRNL [P21K], which protein stability index is on record?
A: 3.53

Q: With DCMGIDRQHIPDTYLCERCQNRNL [P21N] as the variant, how does the protein stability index read?
A: 3.21

Q: Which protein stability index does the source give for DCMGIDRQHIPDTYLCERCQFRNL [P21F] here?
A: 2.49

Q: For DCMGIDRQHIPDTYLCERCQCRNL [P21C], which protein stability index is on record?
A: 3.21

Q: With DCMGIDRQHIPDTYLCERCQGRNL [P21G] as the variant, how does the protein stability index read?
A: 3.45

Q: With DCMGIDRQHIPDTYLCERCQRRNL [P21R] as the variant, how does the protein stability index read?
A: 3.4

Q: Which protein stability index does the source give for DCMGIDRQHIPDTYLCERTQPRNL [C19T] here?
A: 4.09

Q: With DCMGIDRQHIPDTYLCERIQPRNL [C19I] as the variant, how does the protein stability index read?
A: 3.02

Q: With DCMGIDRQHIPDTYLCERQQPRNL [C19Q] as the variant, how does the protein stability index read?
A: 3.88

Q: For DCMGIDRQHIPDTYLCERSQPRNL [C19S], which protein stability index is on record?
A: 3.85

Q: For DCMGIDRQHIPDTYLCERFQPRNL [C19F], which protein stability index is on record?
A: 3.14

Q: With DCMGIDRQHIPDTYLCERRQPRNL [C19R] as the variant, how does the protein stability index read?
A: 4.24

Q: With DCMGIDRQHIPDTYLCERVQPRNL [C19V] as the variant, how does the protein stability index read?
A: 2.65

Q: For DCMGIDRQHIPDTYLCERHQPRNL [C19H], which protein stability index is on record?
A: 3.7

Q: With DCMGIDRQHIPDTYLCERDQPRNL [C19D] as the variant, how does the protein stability index read?
A: 4.73

Q: Which protein stability index does the source give for DCMGIDRQHIPDTYLCERWQPRNL [C19W] here?
A: 2.63

Q: With DCMGIDRQHIPDTYLCERNQPRNL [C19N] as the variant, how does the protein stability index read?
A: 4.06

Q: Which protein stability index does the source give for DCMGIDRQHIPDTYLCERKQPRNL [C19K] here?
A: 3.67

Q: For DCMGIDRQHIPDTYLCERYQPRNL [C19Y], which protein stability index is on record?
A: 2.8

Q: Which protein stability index does the source give for DCMGIDRQHIPDTYLCERLQPRNL [C19L] here?
A: 3.43

Q: With DCMGIDRQHIPDTYLCEREQPRNL [C19E] as the variant, how does the protein stability index read?
A: 4.12

Q: With DCMGIDRQHIPDTYLCERAQPRNL [C19A] as the variant, how does the protein stability index read?
A: 4.26

Q: With DCMGIDRQHIPDTYLCERGQPRNL [C19G] as the variant, how does the protein stability index read?
A: 3.63

Q: Which protein stability index does the source give for DCMGIDRQHIPDTYLCERPQPRNL [C19P] here?
A: 4.55

Q: With DCMGIDRQHIPDTYLCERMQPRNL [C19M] as the variant, how does the protein stability index read?
A: 1.98

Q: With DCMGIDRQHIPDTYYCERCQPRNL [L15Y] as the variant, how does the protein stability index read?
A: 2.28

Q: Which protein stability index does the source give for DCMGIDRQHIPDTYMCERCQPRNL [L15M] here?
A: 2.95

Q: Which protein stability index does the source give for DCMGIDRQHIPDTYGCERCQPRNL [L15G] here?
A: 3.43

Q: With DCMGIDRQHIPDTYQCERCQPRNL [L15Q] as the variant, how does the protein stability index read?
A: 2.99

Q: For DCMGIDRQHIPDTYTCERCQPRNL [L15T], which protein stability index is on record?
A: 3.73

Q: For DCMGIDRQHIPDTYNCERCQPRNL [L15N], which protein stability index is on record?
A: 3.8

Q: Which protein stability index does the source give for DCMGIDRQHIPDTYHCERCQPRNL [L15H] here?
A: 3.32

Q: Which protein stability index does the source give for DCMGIDRQHIPDTYICERCQPRNL [L15I] here?
A: 3.61

Q: With DCMGIDRQHIPDTYSCERCQPRNL [L15S] as the variant, how does the protein stability index read?
A: 3.76

Q: With DCMGIDRQHIPDTYVCERCQPRNL [L15V] as the variant, how does the protein stability index read?
A: 3.28

Q: With DCMGIDRQHIPDTYPCERCQPRNL [L15P] as the variant, how does the protein stability index read?
A: 3.15

Q: Which protein stability index does the source give for DCMGIDRQHIPDTYWCERCQPRNL [L15W] here?
A: 2.81

Q: Which protein stability index does the source give for DCMGIDRQHIPDTYRCERCQPRNL [L15R] here?
A: 3.61

Q: Which protein stability index does the source give for DCMGIDRQHIPDTYKCERCQPRNL [L15K] here?
A: 4

Variants of: B2
Test: as above
Conditions: c terminus: a fixed tail appended

Q: For IVLAASSPYFHDQVLLKGMTSISL [A1I], which protein stability index is on record?
A: 2.99

Q: With CVLAASSPYFHDQVLLKGMTSISL [A1C] as the variant, how does the protein stability index read?
A: 3.85

Q: With EVLAASSPYFHDQVLLKGMTSISL [A1E] as the variant, how does the protein stability index read?
A: 4.15

Q: Which protein stability index does the source give for HVLAASSPYFHDQVLLKGMTSISL [A1H] here?
A: 4.3
